Test results as given in publication PMC2787667 (Cellular signalling, 2009).
Numbering of substitutions follows the chain as printed. Names and notes keep the numbering of the source.

B1: hFSHR(M490A,W494A,I495A), as Rluc and GFP2 fusion proteins (receptor, human, UniProt P23945 18-695, looked up)
chain: CHHRICHCSNRVFLCQESKVTEIPSDLPRNAIELRFVLTKLRVIQKGAFSGFGDLEKIEISQNDVLEVIEADVFSNLPKLHEIRIEKANNLLYINPEAFQNLPNLQYLLISNTGIKHLPDVHKIHSLQKVLLDIQDNINIHTIERNSFVGLSFESVILWLNKNGIQEIHNCAFNGTQLDELNLSDNNNLEELPNDVFHGASGPVILDISRTRIHSLPSYGLENLKKLRARSTYNLKKLPTLEKLVALMEASLTYPSHCCAFANWRRQISELHPICNKSILRQEVDYMTQARGQRSSLAEDNESSYSRGFDMTYTEFDYDLCNEVVDVTCSPKPDAFNPCEDIMGYNILRVLIWFISILAITGNIIVLVILTTSQYKLTVPRFLMCNLAFADLCIGIYLLLIASVDIHTKSQYHNYAIDWQTGAGCDAAGFFTVFASELSVYTLTAITLERWHTITHAMQLDCKVQLRHAASVAVMGAAFAFAAALFPIFGISSYMKVSICLPMDIDSPLSQLYVMSLLVLNVLAFVVICGCYIHIYLTVRNPNIVSSSSDTRIAKRMAMLIFTDFLCMAPISFFAISASLKVPLITVSKAKILLVLFHPINSCANPFLYAIFTKNFRRDFFILLSKCGCYEMQAQIYRTETSSTVHNTHPRNGHCSSAPRVTSGSTYILVPLSHLAQN
B2: hFSHR(I381A,V491A), as Rluc and GFP2 fusion proteins (receptor, human, UniProt P23945 18-695, looked up)
chain: B1 chain with I364A, A473M, V474A, A477W, A478I
B3: hFSHR(I382A,V383A,M490A,V491A), as Rluc and GFP2 fusion proteins (receptor, human, UniProt P23945 18-695, looked up)
chain: B1 chain with I365A, V366A, V474A, A477W, A478I
B4: hFSHR(Y110A), full-length, as Rluc and GFP2 fusion proteins (receptor, human, UniProt P23945 18-695, looked up)
chain: B1 chain with Y93A, A473M, A477W, A478I
B5: hFSHR(W436A,W494A), as Rluc and GFP2 fusion proteins (receptor, human, UniProt P23945 18-695, looked up)
chain: B1 chain with W419A, A473M, A478I

What was measured:
Assay in all cases: FRET or BRET
[1] = target: hFSHR(H485A,S488A,M492A,I495A,F504A), as Rluc and GFP2 fusion proteins (human) (UniProt P23945)
[2] = target: hFSHR(Y110A,H485A,S488A,M492A,I495A,F504A), as Rluc and GFP2 fusion proteins (human) (UniProt P23945)
FRET or BRET = target: the molecule itself

Molecule	BRET50 mut/BRET50 wt (FRET or BRET) [ratio]	other results
hFSHR(H485A,S488A,M492A,I495A,F504A), as Rluc and GFP2 fusion proteins (from UniProt P23945 18-695) (receptor)		BRET50 mut/BRET50 wt [1]: 1.41
hFSHR(Y110A,H485A,S488A,M492A,I495A,F504A), as Rluc and GFP2 fusion proteins (from UniProt P23945 18-695) (receptor)		BRET50 mut/BRET50 wt [2]: 1.29
B1	1.5	
B2	1.69	
B3	0.934	
B4	1.74	
B5	1.29	
